# Test results taken from US20130058911.
# B1: recombinant dihydrolipoyl dehydrogenase (DLD) with His tag (protein)
# chain: MVVGDFPIETDTLVIGAGPGGYVAAIRAAQLGQKVTVVEKATLGGVCLNVGCIPSKALINAGHRYENAKHSDDMGITAENVTVDFTKVQEWKASVVNKLTGGVAGLLKGNKVDVVKGEAYFVDSNSVRVMDENSAQTYTFKNAIIATGSRPIELPNFKYSERVLNSTGALALKEIPKKLVVIGGGYIGTELGTAYANFGTELVILEGGDEILPGFEKQMSSLVTRRLKKKGNVEIHTNAMAKGVEERPDGVTVTFEVKGEEKTVDADYVLITVGRRPNTDELGLEQVGIEMTDRGIVKTDKQCRTNVPNIYAIGDIIEGPPLAHKASYEGKIAAEAIAGEPAEIDYLGIPAVVFSEPELASVGYTEAQAKEEGLDIVAAKFPFAANGRALSLNETDGFMKLITRKEDGLVIGAQIAGASASDMISELSLAIEGGMTAEDIAMTIHAHPTLGEITMEAAEVAIGSPIHIVKHHHHHH
# B2: recombinant putative NAD(P)H nitroreductase (yodC) of Bacillus subtilis with C-terminal 6x His-tag (protein)
# chain: MTNTLDVLKARASVKEYDTNAPISKEELTELLDLATKAPSAWNLQHWHFTVFHSDESKAELLPVAYNQKQIVESSAVVAILGDLKANENGEEVYAELASQGYITDEIKQTLLGQINGAYQSEQFARDSAFLNASLAAMQLMIAAKAKGYDTCAIGGFNKEQFQKQFDISERYVPVMLISIGKAVKPAHQSNRLPLSKVSTWLHHHHHH
# B3: recombinant malate dehydrogenase (MDH) of Bacillus subtilis with C-terminal 6x His-tag (protein)
# chain: MGNTRKKVSVIGAGFTGATTAFLIAQKELADVVLVDIPQLENPTKGKALDMLEASPVQGFDAKITGTSNYEDTAGSDIVVITAGIARKPGMSRDDLVSTNEKIMRSVTQEIVKYSPDSIIVVLTNPVDAMTYAVYKESGFPKERVIGQSGVLDTARFRTFVAEELNLSVKDVTGFVLGGHGDDMVPLVRYSYAGGIPLETLIPKERIDAIVERTRKGGGEIVNLLGNGSAYYAPAASLTEMVEAILKDQRRVLPTIAYLEGEYGYEGIYLGVPTIVGGNGLEQIIELELTDYERAQLNKSVESVKNVMKVLSHHHHHH
# B4: recombinant dihydrolipoyl dehydrogenase (DLD) without His tag (protein)
# chain: MVVGDFPIETDTLVIGAGPGGYVAAIRAAQLGQKVTVVEKATLGGVCLNVGCIPSKALINAGHRYENAKHSDDMGITAENVTVDFTKVQEWKASVVNKLTGGVAGLLKGNKVDVVKGEAYFVDSNSVRVMDENSAQTYTFKNAIIATGSRPIELPNFKYSERVLNSTGALALKEIPKKLVVIGGGYIGTELGTAYANFGTELVILEGGDEILPGFEKQMSSLVTRRLKKKGNVEIHTNAMAKGVEERPDGVTVTFEVKGEEKTVDADYVLITVGRRPNTDELGLEQVGIEMTDRGIVKTDKQCRTNVPNIYAIGDIIEGPPLAHKASYEGKIAAEAIAGEPAEIDYLGIPAVVFSEPELASVGYTEAQAKEEGLDIVAAKFPFAANGRALSLNETDGFMKLITRKEDGLVIGAQIAGASASDMISELSLAIEGGMTAEDIAMTIHAHPTLGEITMEAAEVAIGSPIHIVK
# Target: metmyoglobin
# Sequence (P68082 2-154): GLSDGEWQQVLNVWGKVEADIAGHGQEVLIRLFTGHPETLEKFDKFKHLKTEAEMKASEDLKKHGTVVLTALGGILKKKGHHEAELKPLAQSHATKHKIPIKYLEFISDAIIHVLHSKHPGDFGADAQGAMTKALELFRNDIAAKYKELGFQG
Protein,metmyoglobin reduction activity (change in A406 with NADH),reactivity for myoglobin (relative to DLD)
B1,Both of them showed 10 times or more higher metmyoglobin reduction activity than the empty vector,–
B2,the activity of yodC was confirmed,"In comparison with DLD, yodC showed about 2.6 times and 22 times higher reactivity for potassium ferricyanide and myoglobin, respectively"
B3,the activity of MDH was not found,–
B4,Both of them showed 10 times or more higher metmyoglobin reduction activity than the empty vector,–
